Assay results: PMC9482650, “Quantitative fragmentomics allow affinity mapping of interactomes” (Nature Communications, 2022)

T1: APBA1_1, Q02410
T1 sequence (Q02410 651-752, limits assumed, looked up): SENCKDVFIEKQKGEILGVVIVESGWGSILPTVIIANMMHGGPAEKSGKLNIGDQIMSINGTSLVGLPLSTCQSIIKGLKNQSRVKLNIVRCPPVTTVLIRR

T2: APBA1_2, Q02410
T2 sequence (Q02410 742-832, limits assumed, looked up): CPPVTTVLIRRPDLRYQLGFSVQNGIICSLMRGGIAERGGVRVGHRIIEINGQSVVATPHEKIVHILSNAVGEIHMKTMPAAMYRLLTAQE

T3: DFNB31_2, Q9P202
T3 sequence (Q9P202 274-371, limits assumed, looked up): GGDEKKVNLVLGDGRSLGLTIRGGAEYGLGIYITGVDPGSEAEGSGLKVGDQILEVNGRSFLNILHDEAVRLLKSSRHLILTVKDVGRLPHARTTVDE

T4: DLG3_3, Q92796
T4 sequence (Q92796 374-475, limits assumed, looked up): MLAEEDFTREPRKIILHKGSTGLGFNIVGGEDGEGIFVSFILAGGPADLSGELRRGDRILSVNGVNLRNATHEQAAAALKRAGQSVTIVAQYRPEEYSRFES

T5: GRIP1_4, Q9Y3R0
T5 sequence (Q9Y3R0 467-571, limits assumed, looked up): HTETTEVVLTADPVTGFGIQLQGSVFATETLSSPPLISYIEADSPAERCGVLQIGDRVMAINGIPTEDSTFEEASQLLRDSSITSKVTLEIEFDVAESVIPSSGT

T6: GRIP1_7, Q9Y3R0
T6 sequence (Q9Y3R0 999-1096, limits assumed, looked up): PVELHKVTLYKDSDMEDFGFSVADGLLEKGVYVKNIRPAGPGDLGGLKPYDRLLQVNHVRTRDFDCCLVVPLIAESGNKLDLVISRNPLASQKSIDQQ

T7: MPP7, Q5T2T1
T7 sequence (Q5T2T1 134-230, limits assumed, looked up): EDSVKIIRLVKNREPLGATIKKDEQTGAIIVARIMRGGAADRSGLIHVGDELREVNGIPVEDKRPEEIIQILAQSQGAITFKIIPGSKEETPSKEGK

T8: NHERF3_4, Q5T2W1
T8 sequence (Q5T2W1 373-468, limits assumed, looked up): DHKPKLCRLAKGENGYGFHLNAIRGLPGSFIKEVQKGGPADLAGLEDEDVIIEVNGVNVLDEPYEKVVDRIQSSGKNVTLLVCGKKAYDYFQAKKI

T9: PDZD2_2, O15018
T9 sequence (O15018 329-429, limits assumed, looked up): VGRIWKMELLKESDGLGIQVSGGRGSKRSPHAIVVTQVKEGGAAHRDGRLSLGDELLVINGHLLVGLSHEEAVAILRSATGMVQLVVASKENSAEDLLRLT

T10: RADIL, Q96JH8
T10 sequence (Q96JH8 971-1071, limits assumed, looked up): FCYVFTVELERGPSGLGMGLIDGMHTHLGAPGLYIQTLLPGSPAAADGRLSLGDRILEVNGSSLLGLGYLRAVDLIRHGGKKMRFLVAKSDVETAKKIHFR

T11: SNTG2, Q9NY99
T11 sequence (Q9NY99 68-166, limits assumed, looked up): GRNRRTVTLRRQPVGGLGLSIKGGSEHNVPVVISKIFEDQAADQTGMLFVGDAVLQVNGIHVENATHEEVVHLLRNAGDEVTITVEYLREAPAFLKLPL

B1: PTH2R, P49190 (peptide)
chain: GCQGETEDVL
B2: TTC24, A2A3L6 (peptide)
chain: PMESGICTIV
B3: GJA1, P17302 (peptide)
chain: SRPRPDDLEI

Legend:
Experiment in all cases: holdup assay
Set-up in all cases: key: below the threshold = too weak to quantify, mostly under pKd 3.1 to 4
Conditions in all cases: plain residues with an end cap or a label only (N-terminal biotin on a linker: ado-ado)
AHNAK1, Q09666 = target: AHNAK1, Q09666
AHNAK1, Q09666, sequence (Q09666 4-100): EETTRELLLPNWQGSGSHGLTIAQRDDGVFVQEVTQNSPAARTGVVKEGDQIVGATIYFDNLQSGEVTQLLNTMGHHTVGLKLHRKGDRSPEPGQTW

APBA1_1, Q02410 = target: T1, APBA1_1, Q02410
APBA1_2, Q02410 = target: T2, APBA1_2, Q02410
DFNB31_2, Q9P202 = target: T3, DFNB31_2, Q9P202
DLG1_2, Q12959 = target: DLG1_2, Q12959
DLG1_2, Q12959, sequence (Q12959 314-412): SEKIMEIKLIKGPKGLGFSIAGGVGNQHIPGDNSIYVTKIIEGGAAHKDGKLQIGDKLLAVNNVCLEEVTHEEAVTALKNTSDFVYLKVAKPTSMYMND

DLG1_3, Q12959 = target: DLG1_3, Q12959
DLG1_3, Q12959, sequence (Q12959 457-571): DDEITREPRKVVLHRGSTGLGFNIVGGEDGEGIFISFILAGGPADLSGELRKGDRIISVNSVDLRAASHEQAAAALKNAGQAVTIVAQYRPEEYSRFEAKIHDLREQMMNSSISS

DLG3_3, Q92796 = target: T4, DLG3_3, Q92796
FRMPD2_3, Q68DX3 = target: FRMPD2_3, Q68DX3
FRMPD2_3, Q68DX3, sequence (Q68DX3 1073-1166): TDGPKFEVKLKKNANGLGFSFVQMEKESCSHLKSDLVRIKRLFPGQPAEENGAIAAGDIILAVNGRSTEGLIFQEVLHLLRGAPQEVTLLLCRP

GRIP1_4, Q9Y3R0 = target: T5, GRIP1_4, Q9Y3R0
GRIP1_7, Q9Y3R0 = target: T6, GRIP1_7, Q9Y3R0
HTRA2, O43464 = target: HTRA2, O43464
HTRA2, O43464, sequence (O43464 355-458): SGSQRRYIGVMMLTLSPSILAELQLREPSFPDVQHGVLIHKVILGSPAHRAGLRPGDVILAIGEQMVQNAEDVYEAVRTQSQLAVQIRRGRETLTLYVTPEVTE

Inadl_2, Q8NI35 = target: Inadl_2, Q8NI35
Inadl_2, Q8NI35, sequence (Q8NI35 238-335): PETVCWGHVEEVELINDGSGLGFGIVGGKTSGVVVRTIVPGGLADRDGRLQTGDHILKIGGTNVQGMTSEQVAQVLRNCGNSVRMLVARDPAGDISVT

Inadl_3, Q8NI35 = target: Inadl_3, Q8NI35
Inadl_3, Q8NI35, sequence (Q8NI35 359-469): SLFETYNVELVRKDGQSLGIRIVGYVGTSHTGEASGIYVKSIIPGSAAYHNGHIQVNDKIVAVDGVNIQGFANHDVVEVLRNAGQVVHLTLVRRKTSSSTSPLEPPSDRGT

Inadl_5, Q8NI35 = target: Inadl_5, Q8NI35
Inadl_5, Q8NI35, sequence (Q8NI35 673-780): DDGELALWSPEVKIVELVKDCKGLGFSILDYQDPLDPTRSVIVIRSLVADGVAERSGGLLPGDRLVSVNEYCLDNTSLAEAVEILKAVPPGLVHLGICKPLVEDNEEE

Inadl_6, Q8NI35 = target: Inadl_6, Q8NI35
Inadl_6, Q8NI35, sequence (Q8NI35 1058-1167): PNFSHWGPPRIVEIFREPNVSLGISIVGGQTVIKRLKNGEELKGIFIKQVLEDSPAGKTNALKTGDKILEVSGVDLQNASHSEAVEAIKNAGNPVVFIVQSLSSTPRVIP

LNX1_2, Q8TBB1 = target: LNX1_2, Q8TBB1
LNX1_2, Q8TBB1, sequence (Q8TBB1 371-470): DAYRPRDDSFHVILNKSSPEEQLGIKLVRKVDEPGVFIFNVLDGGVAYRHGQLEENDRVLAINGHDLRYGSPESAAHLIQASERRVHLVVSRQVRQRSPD

LNX1_3, Q8TBB1 = target: LNX1_3, Q8TBB1
LNX1_3, Q8TBB1, sequence (Q8TBB1 500-596): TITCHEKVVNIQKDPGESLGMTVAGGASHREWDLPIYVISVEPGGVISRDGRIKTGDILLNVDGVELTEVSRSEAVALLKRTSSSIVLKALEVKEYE

MAGI3_2, Q5TCQ9 = target: MAGI3_2, Q5TCQ9
MAGI3_2, Q5TCQ9, sequence (Q5TCQ9 398-503): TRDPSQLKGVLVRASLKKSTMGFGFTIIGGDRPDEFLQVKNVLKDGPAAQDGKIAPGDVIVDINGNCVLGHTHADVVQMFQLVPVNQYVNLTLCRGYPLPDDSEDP

MPP7, Q5T2T1 = target: T7, MPP7, Q5T2T1
NHERF3_4, Q5T2W1 = target: T8, NHERF3_4, Q5T2W1
PDZD2_2, O15018 = target: T9, PDZD2_2, O15018
RADIL, Q96JH8 = target: T10, RADIL, Q96JH8
SCRIB_2, Q14160 = target: SCRIB_2, Q14160
SCRIB_2, Q14160, sequence (Q14160 857-960): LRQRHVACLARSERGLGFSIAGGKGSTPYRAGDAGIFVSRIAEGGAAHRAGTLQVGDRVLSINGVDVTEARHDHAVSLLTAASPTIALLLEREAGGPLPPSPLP

SNTG2, Q9NY99 = target: T11, SNTG2, Q9NY99
SNX27, Q96L92 = target: SNX27, Q96L92
TJP1_2, Q07157 = target: TJP1_2, Q07157
TJP1_2, Q07157, sequence (Q07157 181-274): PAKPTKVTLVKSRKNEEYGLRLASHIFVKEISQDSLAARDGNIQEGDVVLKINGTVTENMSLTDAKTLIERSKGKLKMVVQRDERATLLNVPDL

TJP1_3, Q07157 = target: TJP1_3, Q07157
TJP1_3, Q07157, sequence (Q07157 416-512): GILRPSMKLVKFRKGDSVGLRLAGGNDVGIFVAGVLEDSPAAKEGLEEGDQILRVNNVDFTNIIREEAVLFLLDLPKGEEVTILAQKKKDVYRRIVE

Binder	pKd (AHNAK1, Q09666)	pKd (APBA1_1, Q02410)	pKd (APBA1_2, Q02410)	pKd (DFNB31_2, Q9P202)	pKd (DLG1_2, Q12959)	pKd (DLG1_3, Q12959)	pKd (DLG3_3, Q92796)	pKd (FRMPD2_3, Q68DX3)	pKd (GRIP1_4, Q9Y3R0)	pKd (GRIP1_7, Q9Y3R0)	pKd (HTRA2, O43464)	pKd (Inadl_2, Q8NI35)	pKd (Inadl_3, Q8NI35)	pKd (Inadl_5, Q8NI35)	pKd (Inadl_6, Q8NI35)	pKd (LNX1_2, Q8TBB1)	pKd (LNX1_3, Q8TBB1)	pKd (MAGI3_2, Q5TCQ9)	pKd (MPP7, Q5T2T1)	pKd (NHERF3_4, Q5T2W1)	also measured
B1	below the threshold	below the threshold	3.52	below the threshold	below the threshold	below the threshold	below the threshold	below the threshold	below the threshold	below the threshold	below the threshold	below the threshold	3.92	below the threshold	below the threshold	below the threshold	below the threshold	below the threshold	below the threshold	below the threshold	pKd (PDZD2_2, O15018): below the threshold; pKd (RADIL, Q96JH8): below the threshold; pKd (SCRIB_2, Q14160): below the threshold; pKd (SNTG2, Q9NY99): below the threshold; pKd (SNX27, Q96L92): 4.52; pKd (TJP1_2, Q07157): below the threshold; pKd (TJP1_3, Q07157): below the threshold
B2	below the threshold	below the threshold	4.75	below the threshold	5.2	3.53	below the threshold	3.53	below the threshold	below the threshold	4.18	3.76	4.65	3.87	4	4.37	3.53	4.52	below the threshold	below the threshold	pKd (PDZD2_2, O15018): 4.68; pKd (RADIL, Q96JH8): 5.38; pKd (SCRIB_2, Q14160): below the threshold; pKd (SNTG2, Q9NY99): 4.1; pKd (SNX27, Q96L92): 4.63; pKd (TJP1_2, Q07157): 3.56; pKd (TJP1_3, Q07157): below the threshold
B3	below the threshold	below the threshold	below the threshold	below the threshold	below the threshold	below the threshold	below the threshold	below the threshold	below the threshold	below the threshold	below the threshold	below the threshold	3.47	below the threshold	below the threshold	below the threshold	below the threshold	below the threshold	below the threshold	below the threshold	pKd (PDZD2_2, O15018): below the threshold; pKd (RADIL, Q96JH8): below the threshold; pKd (SCRIB_2, Q14160): below the threshold; pKd (SNTG2, Q9NY99): below the threshold; pKd (SNX27, Q96L92): below the threshold; pKd (TJP1_2, Q07157): 4.53; pKd (TJP1_3, Q07157): below the threshold
